Source: patent US20170131280A1 (GENERAL HOSPITAL, published 2017)

B1: Suppressor of AKT (SAKT), endogenous protein of murine bone marrow (BM) cells (receptor, mouse, UniProt Q8BT18 48-775, looked up)
chain: FPKVERRETAQEYAEKEQSQKMNTDDQENISFAPKYMLQQMSSEAPMVLSEGPSEIPLIKVFSVNKESHLPGAGLLHPTSPGVYSSSEPVVSASEQEPGPSLLERMSSEHSLSKVMLTVAVSSPASLNPDQEGPYNSLSTQPIVAAVTDVTHGSLDYLDNQLFAAKSQEAVSLGNSPSSSINTKEPEIIKADAAMGTTVVPGVDSTGDMEPDRERPSEMAADDGQSTTTKYLVTIPNNFLTTEPTAGSILGDAKVTVSVSTAGPVSSIFNEEWDDTKFESISRGRPPEPGDNAETQMRTKPPHGTYESFEGTEESPSSTAVLKVAPGHLGGEPALGTALVTALGDERSPVLTHQISFTPMSLAEDPEVSTMKLFPSAGGFRASTQGDRTQLSSETAFSTSQYESVPQQEAGNVLKDITQERKMATQAMNTTSPVVTQEHMATIEVPRGSGEPEEGMPSLSPVPAEVADAELSRRGESLATPASTTVVPLSLKLTSSMEDLMDTITGPSEEFIPVLGSPMAPPAMTVEAPTISSALPSEGRTSPSISRPNTAASYGLEQLESEEVEDDEDEEDEEDEEEEEEDEEDEEDEEDKETDSLYKDFDGDTEPPGFTLPGITSQEPDIRSGSMDLLEVATYQVPETIEWEQQNQGLVRSWMEKLKDKAGYMSGMLVPVGVGIAGALFILGALYSIKVMNRRRRNGFKRHKRKQREFNSMQDRVMLLADSSEDEF
notes: Endogenous protein immunoprecipitated from murine BM cell lysates; also called C14ORF37
B2: Suppressor of AKT (SAKT), endogenous protein of 293T cells (receptor, UniProt Q86TY3 28-774, looked up)
chain: FPKIERRREIAHVHAEKGQSDKMNTDDLENSSVTSKQTPQLVVSEDPMMMSAVPSATSLNKAFSINKETQPGQAGLMQTERPGVSTPTESGVPSAEEVFGSSQPERISPESGLAKAMLTIAITATPSLTVDEKEELLTSTNFQPIVEEITETTKGFLKYMDNQSFATESQEGVGLGHSPSSYVNTKEMLTTNPKTEKFEADTDHRTTSFPGAESTAGSEPGSLTPDKEKPSQMTADNTQAAATKQPLETSEYTLSVEPETDSLLGAPEVTVSVSTAVPAASALSDEWDDTKLESVSRIRTPKLGDNEETQVRTEMSQTAQVSHEGMEGGQPWTEAAQVALGLPEGETHTGTALLIAHGNERSPAFTDQSSFTPTSLMEDMKVSIVNLLQSTGDFTESTKENDALFFLETTVSVSVYESEADQLLGNTMKDIITQEMTTAVQEPDATLSMVTQEQVATLELIRDSGKTEEEKEDPSPVSDVPGVTQLSRRWEPLATTISTTVVPLSFEVTPTVEEQMDTVTGPNEEFTPVLGSPVTPPGIMVGEPSISPALPALEASSERRTVVPSITRVNTAASYGLDQLESEEGQEDEDEEDEEDEDEEEEDEEEDEEDKDADSLDEGLDGDTELPGFTLPGITSQEPGLEEGNMDLLEGATYQVPDALEWEQQNQGLVRSWMEKLKDKAGYMSGMLVPVGVGIAGALFILGALYSIKVMNRRRRNGFKRHKRKQREFNSMQDRVMLLADSSEDEF
notes: also called C14ORF37

How the values were obtained:
[1] = target: Raptor, endogenous protein of murine BM cells (mouse, UniProt Q8K4Q0 1-1335); test: co-immunoprecipitation from BM cell lysates, western blot (FIG. 1E)
Experimental: (§1) Rictor interaction required the C-terminal portion of SAKT that encompass the cytoplasmic region.
(§2) Protein Analyses. For immunoblotting, cells were lysed in RIPA buffer (Cell Signaling Technology) supplemented with HALT™ protease and phosphatase inhibitor cocktails (Thermo Scientific). Western blot analysis was carried out according to standard methods (8). Equal amounts of total protein from lysates were subjected to SDS-PAGE, transferred to PVDF membrane (Invitrogen), and membranes were probed by overnight incubation with appropriate primary antibodies. Bound antibodies were visualized with HRP-conjugated secondary antibodies and ECL detection reagent (GE Healthcare) and quantification of protein bands (Multigauge V3.0, Fujifilm). For standard immunoprecipitation experiments, proteins were extracted by incubation on ice in IP Lysis Buffer and all protein extracts were pre-cleared with Protein-A/G agarose (Santa Cruz Biotechnology) and incubated with Protein A/G agarose bound with antibodies against FLAG M2 (Sigma), Rictor (#9476, Cell Signaling Technology), and SAKT (Santa Cruz Biotechnology) or control IgG from mouse, and rabbit at 4° C. Immunoprecipitates were washed four times with lysis buffer and boiled for 10 minutes in 1× LDS sample buffer (Invitrogen). The eluted proteins were immunoblotted with the antibodies indicated above. […]

[2] = target: mTor, endogenous protein of murine BM cells (mouse, UniProt Q9JLN9 1-2549); test: as above
Experimental: as §1, §2

[3] = target: mTor, endogenous protein of 293T cells (human, UniProt P42345 1-2549); test: co-immunoprecipitation from 293T cell lysates, western blot (FIG. 1E)
Experimental: as §1, §2

[4] = target: Raptor, endogenous protein of 293T cells (UniProt Q8N122 1-1335); test: as above
Experimental: as §1, §2

Chain of Raptor, endogenous protein of murine BM cells (Q8K4Q0 whole entry): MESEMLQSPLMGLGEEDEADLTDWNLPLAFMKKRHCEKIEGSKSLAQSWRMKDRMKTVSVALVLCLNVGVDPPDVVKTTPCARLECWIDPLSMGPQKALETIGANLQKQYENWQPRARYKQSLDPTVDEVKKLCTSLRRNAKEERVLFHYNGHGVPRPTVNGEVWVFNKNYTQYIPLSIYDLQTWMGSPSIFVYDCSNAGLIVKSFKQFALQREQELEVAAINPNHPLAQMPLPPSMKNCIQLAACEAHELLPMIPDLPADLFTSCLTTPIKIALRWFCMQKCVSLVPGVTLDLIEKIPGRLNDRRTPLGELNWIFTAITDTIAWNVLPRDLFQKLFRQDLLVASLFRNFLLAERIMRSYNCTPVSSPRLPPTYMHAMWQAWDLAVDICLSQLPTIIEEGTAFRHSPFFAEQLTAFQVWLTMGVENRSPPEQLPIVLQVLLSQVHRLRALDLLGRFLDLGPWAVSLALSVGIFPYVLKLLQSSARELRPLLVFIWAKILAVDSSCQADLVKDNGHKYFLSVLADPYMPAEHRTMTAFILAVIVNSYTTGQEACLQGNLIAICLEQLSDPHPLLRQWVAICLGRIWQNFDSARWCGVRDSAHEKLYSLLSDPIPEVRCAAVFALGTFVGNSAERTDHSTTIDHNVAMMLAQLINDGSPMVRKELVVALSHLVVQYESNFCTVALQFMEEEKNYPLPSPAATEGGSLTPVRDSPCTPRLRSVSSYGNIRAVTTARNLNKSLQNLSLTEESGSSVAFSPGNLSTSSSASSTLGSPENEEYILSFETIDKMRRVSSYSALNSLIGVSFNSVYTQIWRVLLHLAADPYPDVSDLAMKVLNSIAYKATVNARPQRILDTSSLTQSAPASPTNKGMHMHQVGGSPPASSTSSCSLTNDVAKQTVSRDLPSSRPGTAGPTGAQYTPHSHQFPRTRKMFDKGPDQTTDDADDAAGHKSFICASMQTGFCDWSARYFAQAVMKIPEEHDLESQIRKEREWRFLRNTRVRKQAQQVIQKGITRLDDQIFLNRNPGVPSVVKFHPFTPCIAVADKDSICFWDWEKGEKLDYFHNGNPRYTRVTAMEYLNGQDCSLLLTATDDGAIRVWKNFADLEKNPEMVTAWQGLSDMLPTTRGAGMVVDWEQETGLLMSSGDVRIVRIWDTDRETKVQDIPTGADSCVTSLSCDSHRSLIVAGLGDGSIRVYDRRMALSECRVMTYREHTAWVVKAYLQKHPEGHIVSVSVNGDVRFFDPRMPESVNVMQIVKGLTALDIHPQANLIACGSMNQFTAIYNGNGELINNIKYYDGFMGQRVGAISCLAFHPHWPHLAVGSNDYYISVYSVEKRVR
Chain of Raptor, endogenous protein of 293T cells (Q8N122 whole entry): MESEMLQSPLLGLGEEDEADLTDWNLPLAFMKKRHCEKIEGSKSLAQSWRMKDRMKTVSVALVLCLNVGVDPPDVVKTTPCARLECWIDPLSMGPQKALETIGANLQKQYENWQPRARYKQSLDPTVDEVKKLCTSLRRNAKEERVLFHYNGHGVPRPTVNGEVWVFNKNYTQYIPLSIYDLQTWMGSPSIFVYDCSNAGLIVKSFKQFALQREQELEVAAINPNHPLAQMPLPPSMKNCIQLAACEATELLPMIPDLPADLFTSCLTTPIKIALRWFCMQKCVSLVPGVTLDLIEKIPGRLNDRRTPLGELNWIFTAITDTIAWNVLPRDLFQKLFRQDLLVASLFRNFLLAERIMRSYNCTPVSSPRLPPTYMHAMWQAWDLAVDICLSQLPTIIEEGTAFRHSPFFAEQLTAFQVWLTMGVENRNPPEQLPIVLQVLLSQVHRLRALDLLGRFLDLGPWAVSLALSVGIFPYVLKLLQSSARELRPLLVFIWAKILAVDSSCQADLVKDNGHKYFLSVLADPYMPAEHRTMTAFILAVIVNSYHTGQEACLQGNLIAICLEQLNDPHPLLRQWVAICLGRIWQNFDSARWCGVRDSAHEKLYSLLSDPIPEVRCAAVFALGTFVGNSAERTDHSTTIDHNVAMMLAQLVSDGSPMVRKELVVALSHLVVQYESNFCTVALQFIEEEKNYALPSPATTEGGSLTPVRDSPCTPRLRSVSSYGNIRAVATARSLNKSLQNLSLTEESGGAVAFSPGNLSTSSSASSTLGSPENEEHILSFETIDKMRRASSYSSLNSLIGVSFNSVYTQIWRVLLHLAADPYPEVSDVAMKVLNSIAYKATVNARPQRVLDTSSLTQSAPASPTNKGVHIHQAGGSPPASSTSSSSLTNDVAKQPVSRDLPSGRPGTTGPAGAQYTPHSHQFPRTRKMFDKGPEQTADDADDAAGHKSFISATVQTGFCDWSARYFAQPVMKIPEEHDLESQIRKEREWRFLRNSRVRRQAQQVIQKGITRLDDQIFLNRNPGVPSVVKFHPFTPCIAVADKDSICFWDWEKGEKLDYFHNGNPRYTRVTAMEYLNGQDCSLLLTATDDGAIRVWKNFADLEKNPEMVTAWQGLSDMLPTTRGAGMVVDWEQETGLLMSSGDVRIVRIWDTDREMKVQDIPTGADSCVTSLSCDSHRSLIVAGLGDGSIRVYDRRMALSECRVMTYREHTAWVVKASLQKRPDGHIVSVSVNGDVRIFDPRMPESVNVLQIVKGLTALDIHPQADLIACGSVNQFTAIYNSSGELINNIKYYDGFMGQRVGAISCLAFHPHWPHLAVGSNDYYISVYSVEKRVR

| Binder | binding result [1] | binding result [2] | binding result [3] | binding result [4] |
| --- | --- | --- | --- | --- |
| B1 | no binding | no binding |  |  |
| B2 |  |  | no binding | no binding |
